{
  "source": "patent US20250034601A1",
  "about": "“HETERODIMERIC BENZALDEHYDE SYNTHASE, METHODS OF PRODUCING, AND USES THEREOF” (Purdue Research Foundation, priority 2021, published 2025)",
  "molecules": {"B1": {"name": "PhBS: heterodimeric Petunia hybrida benzaldehyde synthase of PhBSα (SEQ ID NO: 1) and PhBSβ (SEQ ID NO: 2) subunits, 1:1 ratio (protein, listed as Petunia hybrida)", "alpha": "MEKQTQARFLEPWRDLKGKVVMVTGASSGIGLDLCLDLAKAGCKIIAAARRVDRLKSLCNQINAAADDDDDNNRAVAVELDVSANGDAIEAAVKEAWGAFGRIDALVNNAGVRGTVHSPLELTEEECHNTFRTNLTGTWLVSKYVCKFMRDAKQGGSVINISSIAGLNRGQLPGGLAYVSSKGAVNMVTKVMALELGVDKIRVNSISPGLFKSEITQGLIQKEWLNNVAMRTIPLRTHGNSADPALTSVVRYLIHDSSEYVSGNLFIVDAGATLPGVPIFSSL", "beta": "MENSGKKVLLTSNGDDICNNIAYHLAQRGCQLVLMGNESQLKSVAEMIKQSLGGSAAVEVVGLDMEEDREAAFEEAVDKAWKIFGKLDALVNCYSYEGKMQDPLQLIEEEFKKIVKINFMAGWYLMKCISKKMRDDKSGGSIVFLTSIIGAERGIYQGAAAYGSCLGGIQQLVRLAAIELGKHQIRVNGISRGLHLQDEYPKAVGLERAEKMTKEAAPLNRWLDVKKDLASTVIYLISDDSRYMTGTSIFVDGAQSLVRPRMRSYM"}},
  "key": {"N. benthamiana leaves": {"test_system": "N. benthamiana leaves", "assay": "Reconstitution of benzaldehyde biosynthetic pathway in N. benthamiana leaves, benzylalcohol formation", "type": "in vivo, Nicotiana benthamiana", "details": "150 mM Phe feeding for 24 hours, after Viscozyme treatment; means ± SE, n=5", "from_the_text": "In addition, the complete benzaldehyde β-oxidative biosynthetic pathway was reconstituted in N. benthamiana by expressing together with the PhBS four additional genes encoding phenylalanine ammonia lyase 1 (PhPAL1), PhCNL, PhCHD and PhKAT. Klempien et al. (2012), supra; Qualley et al., Completion of the core 0-oxidative pathway of benzoic acid biosynthesis in plants. Proceedings of the National Acad of Sciences of the U.S.A. 109: 16383-16388 (2012); Moerkercke et al., A plant thiolase involved in benzoic acid biosynthesis and volatile benzenoid production, The Plant J. 60: 292-302 (2009).\nThe coding sequences of PhPAL1, PhCNL, PhCHD, PhKAT, PhBSα (SEQ ID NO: 1) and PhBSβ (SEQ ID NO: 2) were PCR amplified with gene-specific primers (see Table 1 of FIG. 24) from petunia flower cDNAs and cloned into binary vector pCNHP using ClonExpress II One Step Cloning Kit (Vazyme Biotech Co., Piscataway, NJ). After sequence verification, plasmids were transformed into Agrobacterium tumefaciens strain GV3101. Single colonies for each construct were picked and cultured at 28° C. in 3 mL of LB medium supplied with 50 mg/L rifampicin, 50 mg/L gentamycin and 50 mg/L kanamycin to an OD600 of about 2.0. Bacterial cultures were pelleted, washed with a 10 mM MgCl2 solution containing 200 μM acetosyringone, and incubated in the same solution for additional 2 hours at room temperature. […]"}, "[1]": {"assay": "Substrate specificity of purified BS with benzoyl-CoA and hydroxycinnamoyl-CoA analogs (GC-MS)", "type": "biochemical", "details": "1:1 ratio between α and β subunits, NADPH; cinnamoyl-, para-coumaroyl-, caffeoyl-, feruloyl-, sinapoyl-CoA versus benzoyl-CoA", "from_the_text": "The response of internal standard in each run was set as 100%.\nTo analyze substrate specificity of PhBS, CoA esters were enzymatically synthesized from cinnamic acid, para-coumaric acid, caffeic acid, ferulic acid and sinapic acid using purified recombinant petunia 4-coumarate:CoA ligase (Ph4CL1) purified using the protocols described herein (FIG. 11B; triangle indicates the position of the Ph4CL1 protein). […] The experiment was repeated at least six times with similar results.\nTo test whether AtBS is involved in the biosynthesis of other aromatic aldehydes, hydroxycinnamoyl-CoA thioesters were incubated with purified AtBS enzyme, and the corresponding aldehyde formation was analyzed. Briefly, GC-MS analysis was performed of the products formed by AtBS from different hydroxycinnamoyl-CoA substrates. […] Shown in FIG. 22 are the combined EICs of mass units 106 (benzaldehyde), 128 (internal standard), 131 (cinnamaldehyde), and 178 (coniferaldehyde)."}, "[2]": {"assay": "Purified PhBS with short-chain fatty acyl-CoA substrates (GC-MS)", "type": "biochemical", "details": "1 mM fatty acyl-CoA, 28° C., 1 hour", "method": "Given the peroxisomal localization of PhBS, it was also analyzed if purified PhBS could be involved in metabolism of short-chain fatty acyl-CoA esters. […] All reactions were carried out at 28° C. for 1 hour."}},
  "data": [
    {"molecule": "B1", "values": [
      {"measurement": "benzylalcohol produced in infiltrated leaves", "setting": "N. benthamiana leaves", "result": "327.9±14.3", "unit": "nmol·g FW^−1"},
      {"measurement": "substrate specificity (aldehyde formation from CoA esters)", "setting": "[1]", "result": "strict substrate selectivity for benzoyl-CoA"},
      {"measurement": "product formed from hexanoyl-CoA", "setting": "[2]", "result": "only trace amounts of hexanal were detected"}
    ]}
  ]
}
